Reference: publication PMC5897525

Biological target: rFel d 1.mFc
Experiment: SPR; 25°C; dimeric

Kd: 31.6 pM
koff: 7.25e-05 s⁻¹
Substance: REGN1908
